Biological target: T1, Dabcyl-LAQAHomoPheRSC(Fluorescein)-NH2
T1 chain: LAQAFRSC
Assay: enzyme kinetics, initial velocities fitted to a pure competitive two-site model

B1: Human ADAM10 protease containing the catalytic/disintegrin domains (protein)
chain: TTSAEKNTCQLYIQTDHLFFKYYGTREAVIAQISSHVKAIDTIYQTTDFSGIRNISFMVKRIRINTTADEKDPTNPFRFPNIGVEKFLELNSEQNHDDYCLAYVFTDRDFDDGVLGLAWVGAPSGSSGGICEKSKLYSDGKKKSLNTGIITVQNYGSHVPPKVSHITFAHEVGHNFGSPHDSGTECTPGESKNLGQKENGNYIMYARATSGDKLNNNKFSLCSIRNISQVLEKKRNNCFVESGQPICGNGMVEQGEECDCGYSDQCKDECCFDANQPEGRKCKLKPGKQCSPSQGPCCTAQCAFKSKSEKCRDDSDCAREGICNGFTALCPASDPKPNFTDCNRHTQVCINGQCAGSICEKYGLEECTCASSDGKDDKELCHVCCMKKMDPSTCASTGSVQWSRHFSGRTITLQPGSPCNDFRGYCDVFMRCRLVDADGPLARLKKAIFSPELYENIAE
B1 was tested, and the “Ks (binding constant for substrate)” value was “the binding constant, Ks for substrate was 16±4.6 µM”.

Reference: patent US20100081620
